Laboratory results as given in patent US20240173352A1 (A2 BIOTHERAPEUTICS, published 2024).

Target: HLA-A*02 (on target cells) (human)
Assay: cell-based or functional assay

VLHDDLLEA [HA-1(H) peptide]
EC50 right shift of the NY-ESO-1 TCR by 50 uM HA-1(H) peptide: ~30 fold
